Patent publication CN115992129A (YEASEN BIOLOGICAL TECH SHANGHAI CO LTD, dated 2023)

Biological target: T1, BSA (UniProt P02769 25-607)
T1 construct: Negative control antigen in ELISA; also called BSA对照
Assay: ELISA, BSA coated and blocked as control, HRP anti-IgY secondary

T1 sequence (P02769 25-607 limits assumed): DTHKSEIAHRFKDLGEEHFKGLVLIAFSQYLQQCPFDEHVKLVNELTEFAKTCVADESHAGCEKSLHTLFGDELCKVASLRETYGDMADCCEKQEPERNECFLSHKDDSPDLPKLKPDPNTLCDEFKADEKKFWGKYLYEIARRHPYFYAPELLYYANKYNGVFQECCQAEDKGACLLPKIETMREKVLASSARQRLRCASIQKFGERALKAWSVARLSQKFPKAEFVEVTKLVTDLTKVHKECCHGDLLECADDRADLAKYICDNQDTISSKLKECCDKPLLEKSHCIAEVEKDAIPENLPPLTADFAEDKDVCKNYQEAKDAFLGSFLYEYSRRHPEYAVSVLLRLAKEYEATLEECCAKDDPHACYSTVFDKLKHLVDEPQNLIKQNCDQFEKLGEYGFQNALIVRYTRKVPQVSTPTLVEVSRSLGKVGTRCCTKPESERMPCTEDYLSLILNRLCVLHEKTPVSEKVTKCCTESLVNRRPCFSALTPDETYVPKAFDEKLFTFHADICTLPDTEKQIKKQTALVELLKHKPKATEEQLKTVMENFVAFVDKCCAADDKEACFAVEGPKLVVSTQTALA

B1: ProteinA抗体IgY-80 (antibody, V domains shown)
VH: AVTLDESGGGLQTPGGTLSLVCKASGFTFSDRGMHWVRQAPGKGLEWVAGTYTSGSITYYAPAVNGRATISRDNGQSTLRLQLNNLRAEDSGTYYCARDFGPSGWNAGSIDAWGHGTEVIVSS
VL: QAALTQPSSVSANLGGTVKITCSGGGSRYGYMYGWIQQTSPGSAPVTVIYDNTNRPSNIPSRFSGSLSGSTNTLTITGVQAEDEAVYFCGSYEGTTLTFGAGTTLTVL
notes: Biotin-conjugated as the detection antibody in the sandwich ELISA
binding result: no binding (tested: 1μg/ml, two-fold dilutions)

B2: ProteinA抗体IgY-81 (antibody, V domains shown)
VH: AVTLDESGGGLQTPGGALSLVCKASGFTFSSNGMGWVRQAPGKGLEYVASISNDGSLTDYASPVKGRATISRDNGQSTVRLQLNNLRAEDTGTYYCAKSPGGGWLADPIDAWGRGTEVIVSS
VL: QAALTQPASVSANPGETVQITCSGGGSSRYYGWYQQKSPGSAPVTLIYDNINRPSGIPSRFSGSTSGSTGTLSITGVRAEDEAVYYCGSFDSSGTGIFGAGTTLTVL
notes: Coating (capture) antibody in the sandwich ELISA
binding result: no binding (tested: 1μg/ml, two-fold dilutions)
